{
  "source": "paper PMC8403083",
  "proteins": {"B1": {"name": "CD73 (5ʹ-Nucleotidase) (Homo sapiens) (protein)", "chain": "WELTILHTNDVHSRLEQTSEDSSKCVNASRCMGGVARLFTKVQQIRRAEPNVLLLDAGDQYQGTIWFTVYKGAEVAHFMNALRYDAMALGNHEFDNGVEGLIEPLLKEAKFPILSANIKAKGPLASQISGLYLPYKVLPVGDEVVGIVGYTSKETPFLSNPGTNLVFEDEITALQPEVDKLKTLNVNKIIALGHSGFEMDKLIAQKVRGVDVVVGGHSNTFLYTGNPPSKEVPAGKYPFIVTSDDGRKVPVVQAYAFGKYLGYLKIEFDERGNVISSHGNPILLNSSIPEDPSIKADINKWRIKLDNYSTQELGKTIVYLDGSSQSCRFRECNMGNLICDAMINNNLRHTDEMFWNHVSMCILNGGGIRSPIDERNNGTITWENLAAVLPFGGTFDLVQLKGSTLKKAFEHSVHRYGQSTGEFLQVGGIHVVYDLSRKPGDRVVKLDVLCTKCRVPSYDPLKMDEVYKVILPNFLANGGDGFQMIKDELLRHDSGDQDINVVSTYISKMKVIYPAVEGRIK"}},
  "key": {"enzyme kinetics [1]": {"substrate": "Nc1ccn([C@@H]2O[C@H](COP(=O)(O)O)[C@@H](O)[C@H]2O)c(=O)n1", "assay": "enzyme kinetics", "type": "biochemical, Homo sapiens"}, "enzyme kinetics [2]": {"substrate": "Nc1ncnc2c1ncn2[C@@H]1O[C@H](COP(=O)(O)O)[C@@H](O)[C@H]1O", "assay": "enzyme kinetics", "type": "biochemical, Homo sapiens"}},
  "data": [
    {"protein": "B1", "values": [
      {"measurement": "Km", "setting": "enzyme kinetics [1]", "value": 45, "unit": "µM"},
      {"measurement": "Km", "setting": "enzyme kinetics [2]", "value": 2.7, "unit": "µM"}
    ]}
  ]
}
